Laboratory results reported in article doi:10.1101/2024.06.02.597006 (bioRxiv, 2024).

Tests used:
cryo-EM structure = target: the molecule itself; test: cryo-EM structure
[1] = target: T1, Pex5 (full-length yeast Pex5, 1-612), His-Sumo cleaved off (Saccharomyces cerevisiae, UniProt P35056 1-612); test: cryo-EM structure
T1 sequence (looked up): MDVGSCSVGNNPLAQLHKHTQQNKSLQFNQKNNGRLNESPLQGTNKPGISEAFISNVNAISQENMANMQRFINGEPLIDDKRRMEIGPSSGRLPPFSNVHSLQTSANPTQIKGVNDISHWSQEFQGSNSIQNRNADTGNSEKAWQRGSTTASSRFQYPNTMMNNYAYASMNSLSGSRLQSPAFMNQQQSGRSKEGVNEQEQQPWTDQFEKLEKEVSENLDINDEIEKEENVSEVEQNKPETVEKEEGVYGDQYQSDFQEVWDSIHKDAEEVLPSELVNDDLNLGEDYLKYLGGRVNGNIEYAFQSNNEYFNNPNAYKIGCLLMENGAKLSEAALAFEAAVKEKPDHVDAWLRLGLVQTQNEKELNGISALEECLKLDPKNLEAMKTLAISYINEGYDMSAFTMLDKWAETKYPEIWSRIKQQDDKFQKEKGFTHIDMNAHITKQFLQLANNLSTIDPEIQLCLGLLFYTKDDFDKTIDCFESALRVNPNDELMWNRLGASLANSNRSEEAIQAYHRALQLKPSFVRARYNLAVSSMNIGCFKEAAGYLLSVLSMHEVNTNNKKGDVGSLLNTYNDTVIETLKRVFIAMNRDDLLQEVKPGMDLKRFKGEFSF

B1: FLAG-Eci1 (yeast delta3, delta2-Enoyl-CoA Isomerase 1) (enzyme, Saccharomyces cerevisiae (yeast), UniProt Q05871 1-280, looked up)
chain: MSQEIRQNEKISYRIEGPFFIIHLMNPDNLNALEGEDYIYLGELLELADRNRDVYFTIIQSSGRFFSSGADFKGIAKAQGDDTNKYPSETSKWVSNFVARNVYVTDAFIKHSKVLICCLNGPAIGLSAALVALCDIVYSINDKVYLLYPFANLGLITEGGTTVSLPLKFGTNTTYECLMFNKPFKYDIMCENGFISKNFNMPSSNAEAFNAKVLEELREKVKGLYLPSCLGMKKLLKSNHIDAFNKANSVEVNESLKYWVDGEPLKRFRQLGSKQRKHRL
stoichiometry N (cryo-EM structure): 6 | stoichiometry N [1]: 6 Eci1 per Pex5
